This is an account of results in patent publication US20200247855A1, “THERAPY AND DIAGNOSTICS” (OXFORD UNIVERSITY INNOVATION LIMITED, priority 2017, published 2020).

As usually defined, the Kd is a measure of binding affinity in units of concentration.

The target of one test is CCL7_HUMAN (Homo sapiens, UniProt P80098). The conditions noted are these: read-out: Kd, CCL7_HUMAN, previously described evasins; data obtained from publications [20-22,32]; cited from earlier work.
A further test has as its target T1, CCL23_HUMAN (Homo sapiens, UniProt P55773).
T1 sequence (P55773 22-120): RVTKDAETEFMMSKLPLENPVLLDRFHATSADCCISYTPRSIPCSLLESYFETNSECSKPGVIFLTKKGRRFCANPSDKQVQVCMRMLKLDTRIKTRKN
The note with it: read-out: Kd, CCL23_HUMAN, previously described evasins; data obtained from publications [20-22,32]; cited from earlier work.

For another test, the target named is CCL11_HUMAN (Homo sapiens, UniProt P51671). The test is described as follows: Biolayer interferometry (BLI) binding. The gist of the method:
(§1)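 His-tagged purified tick CKBP captured on Ni-NTA sensors (Octet Red384); chemokine first screened at 300 nM, then binders re-run across several chemokine doses. Kd derived from fitted association, equilibrium and dissociation curves, reported in molar units.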
(BLI is a label-free optical method that tracks binding on a fibre tip over time.)

In the next test the target is T2, CCL18_HUMAN (Homo sapiens, UniProt P55774).
T2 sequence (P55774 21-89): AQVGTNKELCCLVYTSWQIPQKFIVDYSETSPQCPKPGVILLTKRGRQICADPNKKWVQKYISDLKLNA
The test is described as follows: Biolayer interferometry (BLI) binding. In short, it runs like this: as §1

The next test has as its target T3, CCL19_HUMAN (Homo sapiens, UniProt Q99731).
T3 sequence (Q99731 22-98): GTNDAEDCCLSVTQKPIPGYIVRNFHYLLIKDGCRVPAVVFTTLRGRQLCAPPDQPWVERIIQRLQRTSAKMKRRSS
The test is described as follows: Biolayer interferometry (BLI) binding. The gist of the method:
as §1

A further test addresses T4, CCL1_HUMAN (Homo sapiens, UniProt P22362).
T4 sequence (P22362 24-96): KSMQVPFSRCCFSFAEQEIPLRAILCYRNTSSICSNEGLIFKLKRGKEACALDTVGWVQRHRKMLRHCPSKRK
The test is described as follows: Biolayer interferometry (BLI) binding. The gist of the method: as §1

The target of the next test is T5, CCL24_HUMAN (Homo sapiens, UniProt O00175).
T5 sequence (O00175 27-119): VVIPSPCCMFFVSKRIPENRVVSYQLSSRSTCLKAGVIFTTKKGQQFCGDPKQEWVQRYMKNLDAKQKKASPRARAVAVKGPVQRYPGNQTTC
The test is described as follows: Biolayer interferometry (BLI) binding. In short, it runs like this: as §1

The next test concerns the target T6, CCL27_HUMAN (Homo sapiens, UniProt Q9Y4X3).
T6 sequence (Q9Y4X3 25-112): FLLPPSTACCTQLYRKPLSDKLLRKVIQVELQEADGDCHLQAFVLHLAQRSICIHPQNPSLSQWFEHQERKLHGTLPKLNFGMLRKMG
As to the kind of experiment: Biolayer interferometry (BLI) binding. The gist of the method:
as §1

The next test addresses T7, CCL4L1_HUMAN (Homo sapiens, UniProt Q8NHW4).
T7 sequence (Q8NHW4 24-92): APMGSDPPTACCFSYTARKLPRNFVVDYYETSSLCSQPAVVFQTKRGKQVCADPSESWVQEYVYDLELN
The test is described as follows: Biolayer interferometry (BLI) binding. The gist of the method:
as §1

The next test concerns the target T8, CCL5_HUMAN (Homo sapiens, UniProt P13501).
T8 sequence (P13501 24-91): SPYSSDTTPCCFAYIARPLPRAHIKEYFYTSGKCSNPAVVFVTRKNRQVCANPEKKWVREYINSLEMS
The test is described as follows: Biolayer interferometry (BLI) binding. In short, it runs like this: as §1

A further test concerns the target CCL2_HUMAN (Homo sapiens, UniProt P13500). As to the kind of experiment: Biolayer interferometry (BLI) binding. In short, it runs like this:
as §1

CCL7_HUMAN, sequence (P80098 24-99): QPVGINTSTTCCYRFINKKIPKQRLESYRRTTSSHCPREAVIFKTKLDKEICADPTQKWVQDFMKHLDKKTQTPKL
CCL2_HUMAN, sequence (P13500 24-99): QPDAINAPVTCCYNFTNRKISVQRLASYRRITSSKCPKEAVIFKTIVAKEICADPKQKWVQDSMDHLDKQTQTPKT
CCL11_HUMAN, sequence (P51671 24-97): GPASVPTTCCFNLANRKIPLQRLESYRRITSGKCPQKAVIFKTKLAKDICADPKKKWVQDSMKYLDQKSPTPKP

B1: EVASIN4: previously described tick CKBP evasin 4, from Rhipicephalus sanguineus (protein, listed as Rhipicephalus sanguineus)
chain: EVPQMTSSSAPDLEEEDDYTAYAPLTCYFTNSTLGLLAPPNCSVLCNSTTTWFNETSPNNASCLLTVDFLTQDAILQENQPYNCSVGHCDNGTCAGPPRHAQCW
Regarding B1, the figures for the Kd with CCL7_HUMAN and with CCL23_HUMAN were 0.7 nM and 4.43 nM, respectively.

B2: P1243_AMBAM: tick CKBP, Amblyomma americanum; AAM-02 stated identical (protein, listed as Amblyomma americanum)
chain: RNHTEDNSTEYYDYEEARCACPARHLNNTNGTVLKLLGCHYFCNGTLCTAPDGYPCYNLTAQQVRTLTTYPNTSCAVGVCMKGTCVKNGTMEQCFKTP
Regarding B2, the Kd with CCL11_HUMAN amounted to 6.03 nM; in the test with CCL18_HUMAN it was 0.00501 nM; in the test with CCL19_HUMAN, 0.592 nM; in the test with CCL1_HUMAN, 21.3 nM; with CCL24_HUMAN it was 7.39 nM; with CCL27_HUMAN it was 15.1 nM. Moreover, the Kd was found to be 35.4 nM with CCL4L1_HUMAN and 1.74 nM with CCL5_HUMAN.

B3: P672_RHIPU: tick CKBP, Rhipicephalus pulchellus (protein, listed as Rhipicephalus pulchellus)
chain: VCEVSEQEGVGEDNATEDEDYEDFFKPVTCYFANSTVGPLRPPNCTVVCTNNTAWWNDTKSDGGHCYSEYRPEKRTHSREIYNCTIGVCGNGTCIANHTYADCW
B3: the Kd in the test with CCL2_HUMAN stood at 9.1 nM.
